Paper PMC7960543 (The Journal of Biological Chemistry, 2021)
Numbering of substitutions follows the chain as printed. Names and notes keep the numbering of the source. Bridge positions count the residues as written; N and C are the ends. Ends that are not written are not given here.

T1: recombinant soluble integrin αvβ3, P06756;P05106
T1 chain 1: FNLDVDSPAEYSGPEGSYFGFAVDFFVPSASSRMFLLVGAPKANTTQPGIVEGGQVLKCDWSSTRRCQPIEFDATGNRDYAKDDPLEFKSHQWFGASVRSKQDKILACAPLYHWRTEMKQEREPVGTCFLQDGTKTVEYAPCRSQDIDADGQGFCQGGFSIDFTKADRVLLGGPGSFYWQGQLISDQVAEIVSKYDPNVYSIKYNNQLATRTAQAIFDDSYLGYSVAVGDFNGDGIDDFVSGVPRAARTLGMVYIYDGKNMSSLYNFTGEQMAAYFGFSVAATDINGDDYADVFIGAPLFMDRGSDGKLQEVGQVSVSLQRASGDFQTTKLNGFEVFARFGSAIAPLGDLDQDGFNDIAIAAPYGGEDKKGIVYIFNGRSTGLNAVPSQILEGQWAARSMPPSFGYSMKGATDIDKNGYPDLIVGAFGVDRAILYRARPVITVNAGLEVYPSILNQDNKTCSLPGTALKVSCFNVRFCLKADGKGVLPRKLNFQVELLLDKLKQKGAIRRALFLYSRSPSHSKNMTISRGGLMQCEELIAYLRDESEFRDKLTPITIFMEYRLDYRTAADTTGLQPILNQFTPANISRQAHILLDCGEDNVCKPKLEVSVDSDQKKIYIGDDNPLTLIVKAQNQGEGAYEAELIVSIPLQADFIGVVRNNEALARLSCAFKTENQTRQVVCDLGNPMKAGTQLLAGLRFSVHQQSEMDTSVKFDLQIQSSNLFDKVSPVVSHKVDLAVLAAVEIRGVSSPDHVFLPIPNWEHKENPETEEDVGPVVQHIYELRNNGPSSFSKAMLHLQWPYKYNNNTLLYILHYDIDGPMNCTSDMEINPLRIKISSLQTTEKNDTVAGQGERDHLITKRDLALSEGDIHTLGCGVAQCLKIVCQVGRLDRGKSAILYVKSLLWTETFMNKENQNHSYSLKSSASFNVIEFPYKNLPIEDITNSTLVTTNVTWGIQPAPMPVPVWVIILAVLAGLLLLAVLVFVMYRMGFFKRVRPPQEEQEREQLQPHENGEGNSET
T1 chain 2: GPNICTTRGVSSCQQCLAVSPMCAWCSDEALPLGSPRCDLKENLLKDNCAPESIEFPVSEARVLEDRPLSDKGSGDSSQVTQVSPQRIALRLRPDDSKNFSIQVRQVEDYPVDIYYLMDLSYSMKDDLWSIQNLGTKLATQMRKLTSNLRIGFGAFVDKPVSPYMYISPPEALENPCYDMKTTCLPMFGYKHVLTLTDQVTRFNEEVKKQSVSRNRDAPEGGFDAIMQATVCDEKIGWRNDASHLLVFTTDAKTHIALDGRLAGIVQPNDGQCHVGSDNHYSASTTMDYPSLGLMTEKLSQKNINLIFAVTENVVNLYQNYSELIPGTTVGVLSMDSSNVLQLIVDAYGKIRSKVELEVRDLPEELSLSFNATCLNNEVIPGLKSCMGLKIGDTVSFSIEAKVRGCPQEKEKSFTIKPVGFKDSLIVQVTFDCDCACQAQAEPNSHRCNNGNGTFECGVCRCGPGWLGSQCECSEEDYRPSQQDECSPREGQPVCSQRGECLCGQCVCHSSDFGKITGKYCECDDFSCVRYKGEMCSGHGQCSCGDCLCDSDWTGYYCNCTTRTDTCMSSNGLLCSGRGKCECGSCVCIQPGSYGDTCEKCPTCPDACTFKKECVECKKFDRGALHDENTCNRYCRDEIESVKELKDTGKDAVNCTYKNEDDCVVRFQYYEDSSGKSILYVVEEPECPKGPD

T2: sCD40L (residues 118–261) K143T HIGM1 mutant (UniProt P29965 118-261, K143T)
T2 construct: CD40L residues 118–261; HIGM1 mutation; source: recombinant, site-directed mutagenesis of WT sCD40L, synthesized as for WT
T2 sequence (looked up): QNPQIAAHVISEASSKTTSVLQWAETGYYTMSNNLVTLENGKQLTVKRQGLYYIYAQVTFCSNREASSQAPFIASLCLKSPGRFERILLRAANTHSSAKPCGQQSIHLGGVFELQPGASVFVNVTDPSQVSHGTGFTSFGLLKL

T3: sCD40L (residues 118–261) L155P HIGM1 mutant (UniProt P29965 118-261, L155P)
T3 construct: CD40L residues 118–261; HIGM1 mutation; source: recombinant, site-directed mutagenesis of WT sCD40L, synthesized as for WT
T3 sequence (looked up): T2 sequence (looked up) with T26K, L38P

T4: sCD40L (residues 118–261) G144E HIGM1 mutant (UniProt P29965 118-261, G144E)
T4 construct: CD40L residues 118–261; HIGM1 mutation; source: recombinant, site-directed mutagenesis of WT sCD40L, synthesized as for WT
T4 sequence (looked up): T2 sequence (looked up) with T26K, G27E

T5: sCD40L (residues 118–261) S128R/E129G HIGM1 mutant (UniProt P29965 118-261, S128R | E129G)
T5 construct: CD40L residues 118–261; HIGM1 (hyper-IgM syndrome type 1) mutation; source: recombinant, site-directed mutagenesis of WT sCD40L, synthesized as for WT
T5 sequence (looked up): T2 sequence (looked up) with S11R, E12G, T26K

B1: recombinant soluble CD40L (residues 118–261) with no N-terminal KGD motif, wild type S128R; E129G (protein)
chain: T2 sequence (looked up) with S11R, E12G, T26K
B2: recombinant soluble CD40L (residues 118–261) with no N-terminal KGD motif, wild type L155P (protein)
chain: T2 sequence (looked up) with T26K, L38P
B3: recombinant soluble CD40L (residues 118–261) with no N-terminal KGD motif, wild type (ligand)
chain: T2 sequence (looked up) with T26K
notes: CD40L (CD40 ligand), residues 118–261, without the KGD motif (residues 115–117); the His tag is known from detection with anti-His antibody; also called sCD40L; WT sCD40L; source: recombinant, synthesized as described (13)
B4: recombinant soluble CD40L (residues 118–261) with no N-terminal KGD motif, wild type K143T (protein)
chain: T2 sequence (looked up)
B5: recombinant soluble CD40L (residues 118–261) with no N-terminal KGD motif, wild type G144E (protein)
chain: T2 sequence (looked up) with T26K, G27E
B6: CD40 fragment (residues 21–144) fused to GST (domain or fragment, UniProt P25942 21-144, looked up)
chain: EPPTACREKQYLINSQCCSLCQPGQKLVSDCTEFTETECLPCGESEFLDTWNRETHCHQHKYCDPNLGLRVQQKGTSETDTICTCEEGWHCTSEACESCVLHRSCSPGFGVKQIATGVSDTICE
notes: also called CD40 fused to GST
B7: disulfide-linked cyclic site 2 peptide of integrin β3 (C260–C288) fused to GST (peptide)
peptide: CRLAGIVQPNDGQSHVGSDNHYSASTTMC
modifications: disulfide 1-29; also: fused to GST
notes: also called cyclic site 2 peptide from β3; 29-mer cyclic β3 peptide
B8: disulfide-linked cyclic site 2 peptide of integrin β1 (C268–C295) fused to GST (peptide)
peptide: CKLGGIVLPNDGQSHLENNMYTMSHYYC
modifications: disulfide 1-28; also: fused to GST
notes: integrin β1 residues 268–295 (site 2); Cloned in pGEX-2T6His; also called the corresponding β1 peptide; 28-mer cyclic β1 peptide

Columns and labels:
[1] = target: T1, recombinant soluble integrin αvβ3, …; assay: ELISA; details: chain shown with the change; immobilized CD40L mutants 10 μg/ml; soluble αvβ3 5 μg/ml in HEPES-Tyrodes buffer, 1 mM Mn2+; detection with anti-β3 (AV10); parent: est. 0.48; read off a plot
[2] = target: B6; assay: ELISA; CD40 fragment (21–144) fused to GST coated on wells (100 μg/ml in PBS); sCD40L (WT or mutant) incubated 1 h; bound sCD40L measured with HRP-conjugated anti-His; details: both partners purified
[3] = target: T2, sCD40L (residues 118–261) K143T HIGM1 …; assay: as above; details: both partners purified
[4] = target: T3, sCD40L (residues 118–261) L155P HIGM1 …; assay: as above; details: both partners purified
[5] = target: T4, sCD40L (residues 118–261) G144E HIGM1 …; assay: as above; details: both partners purified
[6] = target: T5, sCD40L (residues 118–261) S128R/E129G …; assay: as above; details: both partners purified
[7] = target: B3; assay: ELISA; CD40L immobilized; cyclic site 2 peptides of β1 or β3 fused to GST in solution; bound GST measured with HRP-conjugated anti-GST; details: both partners purified

## B1
[1]
  response: 0.046 OD450

## B2
[1]
  response: 0.042 OD450

## B3
[2]
  binding result: binds

## B4
[1]
  response: 0.33 OD450

## B5
[1]
  response: 0.4 OD450

## B6
[3]
  binding result: binds
[4]
  binding result: binds
[5]
  binding result: binds
[6]
  binding result: binds

## B7
[7]
  binding result: binds

## B8
[7]
  binding result: binds
